According to patent US8618101B2, “N-((1R,2S,5R)-5-(tert-butylamino)-2-((S)-3-(7-tert-butylpyrazolo[1,5-a][1,3,5]triazin-4-ylamino)-2-oxopyrrolidin-1-yl)cyclohexyl)acetamide, a dual modulator of chemokine receptor activity, crystalline forms and processes” (Bristol-Myers Squibb Company, priority 2009, dated 2013):
pKd: −log10 of the molar value.

Target: CCR-2 (Homo sapiens, UniProt P41597)
Assay: Cold competition ligand binding to hCCR-2 using 125I-human MCP-1
Conditions: 125I-human MCP-1, n=8

Sequence of CCR-2 (P41597 whole entry): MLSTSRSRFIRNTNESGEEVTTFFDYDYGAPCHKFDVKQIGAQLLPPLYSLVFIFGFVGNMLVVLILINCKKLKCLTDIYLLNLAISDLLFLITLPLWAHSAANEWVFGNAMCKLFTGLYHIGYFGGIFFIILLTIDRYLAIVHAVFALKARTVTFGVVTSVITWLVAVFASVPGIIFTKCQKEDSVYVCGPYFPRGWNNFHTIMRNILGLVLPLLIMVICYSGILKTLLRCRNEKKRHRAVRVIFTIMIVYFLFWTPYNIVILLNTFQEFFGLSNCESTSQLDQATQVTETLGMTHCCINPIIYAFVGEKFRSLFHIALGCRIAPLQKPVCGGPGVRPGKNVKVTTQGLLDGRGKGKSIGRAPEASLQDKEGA

Question: With “mouse MCP-1: mouse chemokine MCP-1, major ligand of CCR-2” as the substance, how does the pKd read?
Answer: The pKd was 9.04.
